Tests used:
[1] = biological target: Vβ 8.2 TCR on T hybridoma
[2] = biological target: I-Eα chain of the murine MHC (class II) (mouse)

Substance	IL-2 (U/ml) produced by T hybridomas + APCs (Vβ 1 TCR on T hybridoma)	IL-2 (U/ml) produced by T hybridomas + APCs (Vβ 11 TCR on T hybridoma)	IL-2 (U/ml) produced by T hybridomas + APCs (Vβ 3 TCR on T hybridoma)	IL-2 (U/ml) produced by T hybridomas + APCs (Vβ 6 TCR on T hybridoma)	IL-2 (U/ml) produced by T hybridomas + APCs [1]	Uptake of 3H-TdR by Mouse Lymphocytes (counts per minute × 10^-3) [2]
Staphylococcus enterotoxin B (from UniProt P01552) (ligand)	0 U/ml	0 U/ml	1830 U/ml	0 U/ml	608 U/ml	
MBP-MAM fusion protein						80.7
Native Mycoplasma arthritidis T-cell mitogen (MAM) (ligand)	0 U/ml	0 U/ml	0 U/ml	640 U/ml	232 U/ml	108
Staphylococcus enterotoxin A (from UniProt P0A0L2) (ligand)	691 U/ml	1180 U/ml	1880 U/ml		0 U/ml	

Reference: patent US5795974
